From paper PMC4888843 (Genes & Development, 2016)

B6: mouse Bcl-xLΔC24 (domain or fragment)
chain: MSQSNRELVVDFLSYKLSQKGYSWSQFSDVEENRTEAPEETEAERETPSAINGNPSWHLADSPAVNGATGHSSSLDAREVIPMAAVKQALREAGDEFELRYRRAFSDLTSQLHITPGTAYQSFEQVVNELFRDGVNWGRIVAFFSFGGALCVESVDKEMQVLVSRIASWMATYLNDHLEPWIQENGGWDTFVDLYGNNAAAESRKGQER
B8: loop-deleted human BCL-XL (Δ27–82, ΔC24) (domain or fragment)
chain: MSQSNRELVVDFLSYKLSQKGYSWSQMAAVKQALREAGDEFELRYRRAFSDLTSQLHITPGTAYQSFEQVVNELFRDGVNWGRIVAFFSFGGALCVESVDKEMQVLVSRIAAWMATYLNDHLEPWIQENGGWDTFVELYGNNAAAESRKGQER

Tests used:
human BCL-XLΔC24 = human BCL-XLΔC24 (human, UniProt Q07817-1 1-209); assay: ELISA
[1] = molecular target: B8; assay: crystal structure
mouse Bcl-xLΔC24 = molecular target: B6; assay: SPR
[2] = molecular target: mouse Bcl-xL Y101F/Q111AΔC24 (mouse, UniProt Q64373-1 1-209, Y101F | Q111A)
mouse Bcl-xL Y101FΔC24 = mouse Bcl-xL Y101FΔC24 (mouse, UniProt Q64373-1 1-209, Y101F)
[3] = molecular target: BIM BH3 synthetic peptide; assay: SPR
crystal structure = molecular target: the molecule itself; assay: crystal structure

B1: phage-displayed human BAK BH3 peptide G82E (peptide)
peptide: PSSTMGQVGRQLAIIEDDINRRYDSE
B1 was tested, and the IC50 (human BCL-XLΔC24) was over 10 µM.

B2: phage-displayed human BAK BH3 peptide Q77A (peptide)
peptide: PSSTMGQVGRALAIIGDDINRRYDSE
For B2, the “fold reduction in binding against wild-type BAK BH3 (from IC50)” value (human BCL-XLΔC24) was 8 fold.

B3: phage-displayed human BAK BH3 peptide R76A (peptide)
peptide: PSSTMGQVGAQLAIIGDDINRRYDSE
For B3, the “fold reduction in binding against wild-type BAK BH3 (from IC50)” value (human BCL-XLΔC24) was 4 fold.

B4: mBak Q75L BH3 synthetic peptide (peptide)
peptide: LPLEPNSILGQVGRLLALIGDDINRRYDTEFQNL
With B4 the binding result [1] was “binds” and the “fold weaker binding than wild-type Bak BH3” value (mouse Bcl-xLΔC24) was about 7 fold.

B5: mBak BH3 synthetic peptide (peptide)
peptide: LPLEPNSILGQVGRQLALIGDDINRRYDTEFQNL
With B5 the “fold weaker binding than wild-type Bcl-xL” value [2] was about 3.5 fold and the “fold weaker binding than wild-type Bcl-xL” value (mouse Bcl-xL Y101FΔC24) was about 3.5 fold.

B6: binds [3].

B7: hBAK BH3 synthetic peptide (peptide)
peptide: LPLQPSSTMGQVGRQLAIIGDDINRRYDSEFQTM
B7: binds [1].

B8: binds (crystal structure).
